# Reference: patent US20070093443A1 (CATALYST BIOSCIENCES, published 2007)
# T1: alpha-2 macroglobulin (in human plasma) (human, UniProt P01023 24-1474)
# T1 construct: Not purified: the endogenous protein of the plasma
# T1 sequence (looked up): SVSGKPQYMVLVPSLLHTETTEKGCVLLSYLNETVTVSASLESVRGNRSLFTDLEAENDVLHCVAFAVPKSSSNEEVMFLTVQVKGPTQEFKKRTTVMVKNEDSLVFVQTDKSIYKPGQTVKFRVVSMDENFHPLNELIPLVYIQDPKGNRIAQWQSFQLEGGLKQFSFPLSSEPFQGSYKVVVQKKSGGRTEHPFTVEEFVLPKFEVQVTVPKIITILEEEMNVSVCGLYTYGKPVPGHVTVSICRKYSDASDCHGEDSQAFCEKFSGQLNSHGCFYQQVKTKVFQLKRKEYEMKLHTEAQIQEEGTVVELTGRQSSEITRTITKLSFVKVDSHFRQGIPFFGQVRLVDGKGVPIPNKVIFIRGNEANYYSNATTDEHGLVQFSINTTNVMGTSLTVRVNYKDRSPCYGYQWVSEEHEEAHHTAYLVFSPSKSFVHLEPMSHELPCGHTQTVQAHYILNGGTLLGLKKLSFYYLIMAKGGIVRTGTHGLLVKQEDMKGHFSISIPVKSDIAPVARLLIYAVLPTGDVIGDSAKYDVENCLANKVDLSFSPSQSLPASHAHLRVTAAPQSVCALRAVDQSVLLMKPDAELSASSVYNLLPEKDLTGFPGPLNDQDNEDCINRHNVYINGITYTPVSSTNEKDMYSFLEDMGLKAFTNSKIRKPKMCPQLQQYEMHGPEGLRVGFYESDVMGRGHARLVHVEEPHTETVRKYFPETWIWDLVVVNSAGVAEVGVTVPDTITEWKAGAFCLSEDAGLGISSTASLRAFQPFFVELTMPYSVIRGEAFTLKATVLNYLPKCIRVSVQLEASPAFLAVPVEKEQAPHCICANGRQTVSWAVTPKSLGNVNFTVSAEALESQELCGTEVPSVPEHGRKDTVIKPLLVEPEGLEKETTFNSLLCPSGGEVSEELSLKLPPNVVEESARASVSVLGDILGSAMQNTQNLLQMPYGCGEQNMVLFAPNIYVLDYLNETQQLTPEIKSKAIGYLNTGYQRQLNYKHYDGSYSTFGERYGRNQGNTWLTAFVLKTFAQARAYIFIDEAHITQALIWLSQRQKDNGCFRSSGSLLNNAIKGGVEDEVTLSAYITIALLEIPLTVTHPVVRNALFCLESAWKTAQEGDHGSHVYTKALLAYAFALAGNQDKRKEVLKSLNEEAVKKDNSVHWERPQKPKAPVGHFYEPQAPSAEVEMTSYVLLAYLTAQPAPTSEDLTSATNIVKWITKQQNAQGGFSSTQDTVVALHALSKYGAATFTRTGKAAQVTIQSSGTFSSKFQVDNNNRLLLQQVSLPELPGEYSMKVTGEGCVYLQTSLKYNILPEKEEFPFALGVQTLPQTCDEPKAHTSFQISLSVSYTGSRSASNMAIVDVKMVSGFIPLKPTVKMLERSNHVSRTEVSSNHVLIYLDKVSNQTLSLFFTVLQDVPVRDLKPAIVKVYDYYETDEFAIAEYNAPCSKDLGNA
# Target: T1, alpha-2 macroglobulin (in human plasma)
# Test: Ac-RQAR-AMC activity of protease after 5 min in human citrated plasma, with and without M84R ecotin
# Procedure: In addition, the percent protease unbound by alpha-2 macroglobulin (a2M) also was determined. Inactivation of a protease by alpha-2 macroglobulin traps the protease in a complex where it is still able to turn over small fluorescent substrates, but unable to access large protein substrates. This property of alpha-2 macroglobulin complicates the assessment of a proteases activity in plasma. To determine the actual activity of the free, uncomplexed protease in plasma, a two step measurement is required. First, the sample's activity on fluorescent substrates is measured. […] The percent unbound by alpha-2 macroglobulin activity is the percentage of the plasma residual activity that is inhibited by the addition of the ecotin. Briefly, in a 0.2 mL PCR tube, 1 μL 10× protease was mixed with 9 μL human plasma in citrate (Innovative Research). A uninhibted control also was prepeared containing 1 μL 10× protease mixed with 9 μL PBST. The mixtures were incubated for 5 minutes at 37° C. The samples were diluted 250 fold in PBST and stored on ice. Two 50 μL aliquots for each sample were transferred to an opaque assay plate (Costar #3694) containing 2 μL PBST or 2 μL 520 nM M84R ecotin. The plates were incubated 10 minutes at room temperature. Five microliters 0.4 mM Ac-RQAR-AMC substrate was added and the fluorescence was measured over time with a SpectraMax M5 spectrafluorometer (Molecular Devices) set to read every 20 seconds for 30 minutes at 30° C. (Ex: 380 nm, EM: 450 nm, Cut-off: 435 nm). The percent unbound by alpha-2 macroglobulin was calculated with the following formula: (1-([(Protease in plasma/Protease in PBST)−(Protease in plasma+ecotin/Protease in PBST)]/(Protease in plasma/Protease in PBST)))*100.
row,% Unbound by a2M [%],Binder
1,44,modified MT-SP1 CB486 (I41T/Y146E/Q175D/K224R) protease domain (enzyme) VVGGTDADEGEWPWQVSLHALGQGHTCGASLISPNWLVSAAHCYIDDRGFRYSDPTQWTAFLGLHDQSQRSAPGVQERRLKRIISHPFFNDFTFDYDIALLELEKPAEYSSMVRPICLPDASHVFPAGKAIWVTGWGHTQEGGTGALILQKGEIRVINQTTCENLLPQDITPRMMCVGFLSGGVDSCQGDSGGPLSSVEADGRIFQAGVVSWGDGCAQRNRPGVYTRLPLFRDWIKENTGV
2,82,modified MT-SP1 CB485 (I41T/Y146E/Q175D/K224L) protease domain (enzyme) VVGGTDADEGEWPWQVSLHALGQGHTCGASLISPNWLVSAAHCYIDDRGFRYSDPTQWTAFLGLHDQSQRSAPGVQERRLKRIISHPFFNDFTFDYDIALLELEKPAEYSSMVRPICLPDASHVFPAGKAIWVTGWGHTQEGGTGALILQKGEIRVINQTTCENLLPQDITPRMMCVGFLSGGVDSCQGDSGGPLSSVEADGRIFQAGVVSWGDGCAQRNLPGVYTRLPLFRDWIKENTGV
3,53,modified MT-SP1 CB487 (I41T/Y146E/G151L/Q175D/K224N) protease domain (enzyme) VVGGTDADEGEWPWQVSLHALGQGHTCGASLISPNWLVSAAHCYIDDRGFRYSDPTQWTAFLGLHDQSQRSAPGVQERRLKRIISHPFFNDFTFDYDIALLELEKPAEYSSMVRPICLPDASHVFPAGKAIWVTGWGHTQEGGTLALILQKGEIRVINQTTCENLLPQDITPRMMCVGFLSGGVDSCQGDSGGPLSSVEADGRIFQAGVVSWGDGCAQRNNPGVYTRLPLFRDWIKENTGV
4,10,modified MT-SP1 CB482 (I41T/Y146D/G151L/Q175D/K224R) protease domain (enzyme) VVGGTDADEGEWPWQVSLHALGQGHTCGASLISPNWLVSAAHCYIDDRGFRYSDPTQWTAFLGLHDQSQRSAPGVQERRLKRIISHPFFNDFTFDYDIALLELEKPAEYSSMVRPICLPDASHVFPAGKAIWVTGWGHTQDGGTLALILQKGEIRVINQTTCENLLPQDITPRMMCVGFLSGGVDSCQGDSGGPLSSVEADGRIFQAGVVSWGDGCAQRNRPGVYTRLPLFRDWIKENTGV
5,85,modified MT-SP1 CB488 (I41T/Y146E/G151L/Q175D/K224F) protease domain (enzyme) VVGGTDADEGEWPWQVSLHALGQGHTCGASLISPNWLVSAAHCYIDDRGFRYSDPTQWTAFLGLHDQSQRSAPGVQERRLKRIISHPFFNDFTFDYDIALLELEKPAEYSSMVRPICLPDASHVFPAGKAIWVTGWGHTQEGGTLALILQKGEIRVINQTTCENLLPQDITPRMMCVGFLSGGVDSCQGDSGGPLSSVEADGRIFQAGVVSWGDGCAQRNFPGVYTRLPLFRDWIKENTGV
6,58,modified MT-SP1 CB489 (I41T/Y146E/G151L/Q175D/K224L) protease domain (enzyme) VVGGTDADEGEWPWQVSLHALGQGHTCGASLISPNWLVSAAHCYIDDRGFRYSDPTQWTAFLGLHDQSQRSAPGVQERRLKRIISHPFFNDFTFDYDIALLELEKPAEYSSMVRPICLPDASHVFPAGKAIWVTGWGHTQEGGTLALILQKGEIRVINQTTCENLLPQDITPRMMCVGFLSGGVDSCQGDSGGPLSSVEADGRIFQAGVVSWGDGCAQRNLPGVYTRLPLFRDWIKENTGV

# Further lines, the binder ahead of its results:
row,Binder,% Unbound by a2M [%]
1,modified MT-SP1 CB483 (I41T/Y146D/G151L/Q175D/K224N) protease domain (enzyme) VVGGTDADEGEWPWQVSLHALGQGHTCGASLISPNWLVSAAHCYIDDRGFRYSDPTQWTAFLGLHDQSQRSAPGVQERRLKRIISHPFFNDFTFDYDIALLELEKPAEYSSMVRPICLPDASHVFPAGKAIWVTGWGHTQDGGTLALILQKGEIRVINQTTCENLLPQDITPRMMCVGFLSGGVDSCQGDSGGPLSSVEADGRIFQAGVVSWGDGCAQRNNPGVYTRLPLFRDWIKENTGV,73
2,modified MT-SP1 CB477 (I41T/Y146D/Q175D/K224R) protease domain (enzyme) VVGGTDADEGEWPWQVSLHALGQGHTCGASLISPNWLVSAAHCYIDDRGFRYSDPTQWTAFLGLHDQSQRSAPGVQERRLKRIISHPFFNDFTFDYDIALLELEKPAEYSSMVRPICLPDASHVFPAGKAIWVTGWGHTQDGGTGALILQKGEIRVINQTTCENLLPQDITPRMMCVGFLSGGVDSCQGDSGGPLSSVEADGRIFQAGVVSWGDGCAQRNRPGVYTRLPLFRDWIKENTGV,67
3,modified MT-SP1 CB481 (I41T/Y146D/G151L/Q175D/K224L) protease domain (enzyme) VVGGTDADEGEWPWQVSLHALGQGHTCGASLISPNWLVSAAHCYIDDRGFRYSDPTQWTAFLGLHDQSQRSAPGVQERRLKRIISHPFFNDFTFDYDIALLELEKPAEYSSMVRPICLPDASHVFPAGKAIWVTGWGHTQDGGTLALILQKGEIRVINQTTCENLLPQDITPRMMCVGFLSGGVDSCQGDSGGPLSSVEADGRIFQAGVVSWGDGCAQRNLPGVYTRLPLFRDWIKENTGV,72
4,modified MT-SP1 CB421 (I41T/Y146D/Q175D/K224F) protease domain (enzyme) VVGGTDADEGEWPWQVSLHALGQGHTCGASLISPNWLVSAAHCYIDDRGFRYSDPTQWTAFLGLHDQSQRSAPGVQERRLKRIISHPFFNDFTFDYDIALLELEKPAEYSSMVRPICLPDASHVFPAGKAIWVTGWGHTQDGGTGALILQKGEIRVINQTTCENLLPQDITPRMMCVGFLSGGVDSCQGDSGGPLSSVEADGRIFQAGVVSWGDGCAQRNFPGVYTRLPLFRDWIKENTGV,84
5,modified MT-SP1 CB480 (I41T/Y146D/G151L/Q175D/K224F) protease domain (enzyme) VVGGTDADEGEWPWQVSLHALGQGHTCGASLISPNWLVSAAHCYIDDRGFRYSDPTQWTAFLGLHDQSQRSAPGVQERRLKRIISHPFFNDFTFDYDIALLELEKPAEYSSMVRPICLPDASHVFPAGKAIWVTGWGHTQDGGTLALILQKGEIRVINQTTCENLLPQDITPRMMCVGFLSGGVDSCQGDSGGPLSSVEADGRIFQAGVVSWGDGCAQRNFPGVYTRLPLFRDWIKENTGV,88
6,modified MT-SP1 CB478 (I41T/Y146D/Q175D/K224N) protease domain (enzyme) VVGGTDADEGEWPWQVSLHALGQGHTCGASLISPNWLVSAAHCYIDDRGFRYSDPTQWTAFLGLHDQSQRSAPGVQERRLKRIISHPFFNDFTFDYDIALLELEKPAEYSSMVRPICLPDASHVFPAGKAIWVTGWGHTQDGGTGALILQKGEIRVINQTTCENLLPQDITPRMMCVGFLSGGVDSCQGDSGGPLSSVEADGRIFQAGVVSWGDGCAQRNNPGVYTRLPLFRDWIKENTGV,89
7,modified MT-SP1 CB476 (I41T/Y146D/Q175D/K224L) protease domain (enzyme) VVGGTDADEGEWPWQVSLHALGQGHTCGASLISPNWLVSAAHCYIDDRGFRYSDPTQWTAFLGLHDQSQRSAPGVQERRLKRIISHPFFNDFTFDYDIALLELEKPAEYSSMVRPICLPDASHVFPAGKAIWVTGWGHTQDGGTGALILQKGEIRVINQTTCENLLPQDITPRMMCVGFLSGGVDSCQGDSGGPLSSVEADGRIFQAGVVSWGDGCAQRNLPGVYTRLPLFRDWIKENTGV,89
8,modified MT-SP1 CB422 (I41T/Y146E/Q175D/K224N) protease domain (enzyme) VVGGTDADEGEWPWQVSLHALGQGHTCGASLISPNWLVSAAHCYIDDRGFRYSDPTQWTAFLGLHDQSQRSAPGVQERRLKRIISHPFFNDFTFDYDIALLELEKPAEYSSMVRPICLPDASHVFPAGKAIWVTGWGHTQEGGTGALILQKGEIRVINQTTCENLLPQDITPRMMCVGFLSGGVDSCQGDSGGPLSSVEADGRIFQAGVVSWGDGCAQRNNPGVYTRLPLFRDWIKENTGV,83
